According to patent publication EP4692118A1:

Tests used:
[1] = biological target: ADAM9 on human tumour cells (LS174T, HepG2, Calu-3, Colo205) (human) (UniProt Q13443); test: flow cytometry on HepG2 cells, 15.625 nM, negative control
[2] = biological target: ADAM9 on human tumour cells (LS174T, HepG2, Calu-3, Colo205) (human) (UniProt Q13443); test: flow cytometry on HepG2 cells, 0.061035 nM, negative control
[3] = biological target: ADAM9 on human tumour cells (LS174T, HepG2, Calu-3, Colo205) (human) (UniProt Q13443); test: flow cytometry on HepG2 cells, 3.906250 nM, negative control
[4] = biological target: ADAM9 on human tumour cells (LS174T, HepG2, Calu-3, Colo205) (human) (UniProt Q13443); test: flow cytometry on LS174T cells, 0.015259 nM, negative control
[5] = biological target: ADAM9 on human tumour cells (LS174T, HepG2, Calu-3, Colo205) (human) (UniProt Q13443); test: flow cytometry on HepG2 cells, 0.003815 nM, negative control
[6] = biological target: ADAM9 on human tumour cells (LS174T, HepG2, Calu-3, Colo205) (human) (UniProt Q13443); test: flow cytometry on LS174T cells, 15.625 nM, negative control
[7] = biological target: ADAM9 on human tumour cells (LS174T, HepG2, Calu-3, Colo205) (human) (UniProt Q13443); test: flow cytometry on HepG2 cells, 0.976563 nM, negative control
[8] = biological target: ADAM9 on human tumour cells (LS174T, HepG2, Calu-3, Colo205) (human) (UniProt Q13443); test: flow cytometry on HepG2 cells, 0.015259 nM, negative control
[9] = biological target: ADAM9 on human tumour cells (LS174T, HepG2, Calu-3, Colo205) (human) (UniProt Q13443); test: flow cytometry on HepG2 cells, 0.000238 nM, negative control
[10] = biological target: ADAM9 on human tumour cells (LS174T, HepG2, Calu-3, Colo205) (human) (UniProt Q13443); test: flow cytometry on LS174T cells, 3.906250 nM, negative control
[11] = biological target: ADAM9 on human tumour cells (LS174T, HepG2, Calu-3, Colo205) (human) (UniProt Q13443); test: flow cytometry on HepG2 cells, 62.5 nM, negative control
[12] = biological target: ADAM9 on human tumour cells (LS174T, HepG2, Calu-3, Colo205) (human) (UniProt Q13443); test: flow cytometry on LS174T cells, 0.244141 nM, negative control
[13] = biological target: ADAM9 on human tumour cells (LS174T, HepG2, Calu-3, Colo205) (human) (UniProt Q13443); test: flow cytometry on LS174T cells, 0.003815 nM, negative control
[14] = biological target: ADAM9 on human tumour cells (LS174T, HepG2, Calu-3, Colo205) (human) (UniProt Q13443); test: flow cytometry on HepG2 cells, 250 nM, negative control
[15] = biological target: ADAM9 on human tumour cells (LS174T, HepG2, Calu-3, Colo205) (human) (UniProt Q13443); test: flow cytometry on HepG2 cells, 0.000954 nM, negative control
[16] = biological target: ADAM9 on human tumour cells (LS174T, HepG2, Calu-3, Colo205) (human) (UniProt Q13443); test: flow cytometry on HepG2 cells, 1000 nM, negative control
[17] = biological target: ADAM9 on human tumour cells (LS174T, HepG2, Calu-3, Colo205) (human) (UniProt Q13443); test: flow cytometry on LS174T cells, 0.976563 nM, negative control
[18] = biological target: ADAM9 on human tumour cells (LS174T, HepG2, Calu-3, Colo205) (human) (UniProt Q13443); test: flow cytometry on LS174T cells, 0.000954 nM, negative control
[19] = biological target: ADAM9 on human tumour cells (LS174T, HepG2, Calu-3, Colo205) (human) (UniProt Q13443); test: flow cytometry on LS174T cells, 62.5 nM, negative control
[20] = biological target: ADAM9 on human tumour cells (LS174T, HepG2, Calu-3, Colo205) (human) (UniProt Q13443); test: flow cytometry on LS174T cells, 0.061035 nM, negative control
[21] = biological target: ADAM9 on human tumour cells (LS174T, HepG2, Calu-3, Colo205) (human) (UniProt Q13443); test: flow cytometry on LS174T cells, 250 nM, negative control
[22] = biological target: ADAM9 on human tumour cells (LS174T, HepG2, Calu-3, Colo205) (human) (UniProt Q13443); test: flow cytometry on HepG2 cells, 0.244141 nM, negative control
[23] = biological target: ADAM9 on human tumour cells (LS174T, HepG2, Calu-3, Colo205) (human) (UniProt Q13443); test: flow cytometry on LS174T cells, 1000 nM, negative control
[24] = biological target: ADAM9 on human tumour cells (LS174T, HepG2, Calu-3, Colo205) (human) (UniProt Q13443); test: flow cytometry on LS174T cells, 0.976563 nM
[25] = biological target: ADAM9 on human tumour cells (LS174T, HepG2, Calu-3, Colo205) (human) (UniProt Q13443); test: flow cytometry on LS174T cells, 0.015259 nM
[26] = biological target: ADAM9 on human tumour cells (LS174T, HepG2, Calu-3, Colo205) (human) (UniProt Q13443); test: flow cytometry on LS174T cells, 15.625 nM
[27] = biological target: ADAM9 on human tumour cells (LS174T, HepG2, Calu-3, Colo205) (human) (UniProt Q13443); test: flow cytometry on LS174T cells, 0.000954 nM
[28] = biological target: ADAM9 on human tumour cells (LS174T, HepG2, Calu-3, Colo205) (human) (UniProt Q13443); test: cell-based or functional assay
[29] = biological target: ADAM9 on human tumour cells (LS174T, HepG2, Calu-3, Colo205) (human) (UniProt Q13443); test: flow cytometry on LS174T cells, 0.244141 nM
[30] = biological target: ADAM9 on human tumour cells (LS174T, HepG2, Calu-3, Colo205) (human) (UniProt Q13443); test: flow cytometry on LS174T cells, 0.003815 nM
[31] = biological target: ADAM9 on human tumour cells (LS174T, HepG2, Calu-3, Colo205) (human) (UniProt Q13443); test: flow cytometry on LS174T cells, 3.906250 nM
[32] = biological target: ADAM9 on human tumour cells (LS174T, HepG2, Calu-3, Colo205) (human) (UniProt Q13443); test: flow cytometry on LS174T cells, 62.5 nM
[33] = biological target: ADAM9 on human tumour cells (LS174T, HepG2, Calu-3, Colo205) (human) (UniProt Q13443); test: flow cytometry on LS174T cells, 250 nM
[34] = biological target: ADAM9 on human tumour cells (LS174T, HepG2, Calu-3, Colo205) (human) (UniProt Q13443); test: flow cytometry on LS174T cells, 1000 nM
[35] = biological target: ADAM9 on human tumour cells (LS174T, HepG2, Calu-3, Colo205) (human) (UniProt Q13443); test: flow cytometry on LS174T cells, 0.061035 nM
[36] = biological target: ADAM9 on human tumour cells (LS174T, HepG2, Calu-3, Colo205) (human) (UniProt Q13443); test: flow cytometry on HepG2 cells, 62.5 nM
[37] = biological target: ADAM9 on human tumour cells (LS174T, HepG2, Calu-3, Colo205) (human) (UniProt Q13443); test: flow cytometry on HepG2 cells, 15.625 nM
[38] = biological target: ADAM9 on human tumour cells (LS174T, HepG2, Calu-3, Colo205) (human) (UniProt Q13443); test: flow cytometry on HepG2 cells, 0.244141 nM
[39] = biological target: ADAM9 on human tumour cells (LS174T, HepG2, Calu-3, Colo205) (human) (UniProt Q13443); test: flow cytometry on HepG2 cells, 0.976563 nM
[40] = biological target: ADAM9 on human tumour cells (LS174T, HepG2, Calu-3, Colo205) (human) (UniProt Q13443); test: flow cytometry on HepG2 cells, 3.906250 nM
[41] = biological target: ADAM9 on human tumour cells (LS174T, HepG2, Calu-3, Colo205) (human) (UniProt Q13443); test: flow cytometry on HepG2 cells, 250 nM
[42] = biological target: ADAM9 on human tumour cells (LS174T, HepG2, Calu-3, Colo205) (human) (UniProt Q13443); test: flow cytometry on HepG2 cells, 1000 nM
[43] = biological target: ADAM9 on human tumour cells (LS174T, HepG2, Calu-3, Colo205) (human) (UniProt Q13443); test: flow cytometry on HepG2 cells, 0.003815 nM
[44] = biological target: ADAM9 on human tumour cells (LS174T, HepG2, Calu-3, Colo205) (human) (UniProt Q13443); test: flow cytometry on HepG2 cells, 0.000954 nM
[45] = biological target: ADAM9 on human tumour cells (LS174T, HepG2, Calu-3, Colo205) (human) (UniProt Q13443); test: flow cytometry on HepG2 cells, 0.061035 nM
[46] = biological target: ADAM9 on human tumour cells (LS174T, HepG2, Calu-3, Colo205) (human) (UniProt Q13443); test: flow cytometry on HepG2 cells, 0.000238 nM
[47] = biological target: ADAM9 on human tumour cells (LS174T, HepG2, Calu-3, Colo205) (human) (UniProt Q13443); test: flow cytometry on HepG2 cells, 0.015259 nM

ADAM9 on human tumour cells (LS174T, HepG2, Calu-3, Colo205) (human), sequence (Q13443 29-819): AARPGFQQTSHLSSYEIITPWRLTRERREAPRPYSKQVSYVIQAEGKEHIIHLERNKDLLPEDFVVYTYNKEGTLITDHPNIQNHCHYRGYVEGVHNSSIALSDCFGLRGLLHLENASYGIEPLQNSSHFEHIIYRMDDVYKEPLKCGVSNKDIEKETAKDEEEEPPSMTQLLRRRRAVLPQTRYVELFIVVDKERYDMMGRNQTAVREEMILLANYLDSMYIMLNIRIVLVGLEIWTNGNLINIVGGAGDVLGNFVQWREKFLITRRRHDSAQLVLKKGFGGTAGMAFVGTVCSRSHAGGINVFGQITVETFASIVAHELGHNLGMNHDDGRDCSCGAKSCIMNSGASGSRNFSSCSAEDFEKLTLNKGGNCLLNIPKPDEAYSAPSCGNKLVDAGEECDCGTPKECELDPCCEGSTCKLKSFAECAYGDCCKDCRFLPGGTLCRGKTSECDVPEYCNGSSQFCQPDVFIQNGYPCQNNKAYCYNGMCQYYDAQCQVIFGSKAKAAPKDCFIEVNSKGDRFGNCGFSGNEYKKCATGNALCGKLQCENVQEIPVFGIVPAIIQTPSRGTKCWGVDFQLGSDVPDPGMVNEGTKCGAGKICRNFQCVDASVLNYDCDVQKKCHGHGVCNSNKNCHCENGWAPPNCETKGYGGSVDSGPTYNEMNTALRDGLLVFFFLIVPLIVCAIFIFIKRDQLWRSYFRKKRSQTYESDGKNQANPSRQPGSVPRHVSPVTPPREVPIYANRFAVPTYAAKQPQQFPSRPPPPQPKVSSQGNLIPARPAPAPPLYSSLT

anti-HIV human IgG antibody (iso-IgG1, produced by WuXi AppTec)
Mean fluorescence intensity (MFI) [1]: 364 | Mean fluorescence intensity (MFI) [2]: 377 | Mean fluorescence intensity (MFI) [3]: 361 | Mean fluorescence intensity [4]: 213 | Mean fluorescence intensity (MFI) [5]: 349 | Mean fluorescence intensity [6]: 209 | Mean fluorescence intensity (MFI) [7]: 360 | Mean fluorescence intensity (MFI) [8]: 371 | Mean fluorescence intensity (MFI) [9]: 361 | Mean fluorescence intensity [10]: 203 | Mean fluorescence intensity (MFI) [11]: 386 | Mean fluorescence intensity [12]: 208 | Mean fluorescence intensity [13]: 254 | Mean fluorescence intensity (MFI) [14]: 389 | Mean fluorescence intensity (MFI) [15]: 365 | Mean fluorescence intensity (MFI) [16]: 690 | Mean fluorescence intensity [17]: 212 | Mean fluorescence intensity [18]: 220 | Mean fluorescence intensity [19]: 229 | Mean fluorescence intensity [20]: 202 | Mean fluorescence intensity [21]: 269 | Mean fluorescence intensity (MFI) [22]: 363 | Mean fluorescence intensity [23]: 368

B1: antibody-drug conjugate Ab16-X2 (antibody, human IgG1, kappa, V domains shown)
VH: QVQLQQPGTEVVKPGASVKLSCKASGFTFPLYWMHWVRQRPGRGLEWIGRIIPIFGHTKYNEKFKNKATLTADESSSTAYMELRSLTSDDSAVYYCARGGYYYYPREGFLDYWGQGTSVTVSS
VL: DIVMTQSPASLSVSPGERASISCRSSQSVDYSGDSYMNWYQQKPGQSPRLLIYAASDRESGVPDRFSGSGSGTDFTLKISRVEEEDAGTYYCQQSREDPFTFGQGTKVDIKR
modifications: linker-payload X2 (camptothecin type) conjugated after reduction with tris(2-carboxyethyl)phosphine; DAR p = 7.9; sites not given
Mean fluorescence intensity [24]: 1960 | Mean fluorescence intensity [25]: 268 | Mean fluorescence intensity [26]: 2400 | Mean fluorescence intensity [27]: 223 | IC50 (nM) of proliferation inhibition, Calu-3 cells, CellTiter-Glo, 6 days [28]: 3.83 nM | IC50 (nM) of proliferation inhibition, Colo205 cells, CellTiter-Glo, 6 days [28]: 29.8 nM | IC50 (nM) of proliferation inhibition, LS174T cells, CellTiter-Glo, 6 days [28]: 8.97 nM | Mean fluorescence intensity [29]: 954 | Mean fluorescence intensity [30]: 219 | Mean fluorescence intensity [31]: 2380 | Mean fluorescence intensity [32]: 2160 | Mean fluorescence intensity [33]: 2130 | Mean fluorescence intensity [34]: 1130 | Mean fluorescence intensity [35]: 447

B2: antibody-drug conjugate Ab16-X1 (antibody, human IgG1, kappa, V domains shown)
VH: B1 VH
VL: B1 VL
modifications: linker-payload X1 (camptothecin type) conjugated after reduction with tris(2-carboxyethyl)phosphine; DAR p = 7.8; sites not given
Mean fluorescence intensity (MFI) [36]: 3290 | Mean fluorescence intensity (MFI) [37]: 2960 | IC50 (nM) of proliferation inhibition, Calu-3 cells, CellTiter-Glo, 6 days [28]: 8.6 nM | Mean fluorescence intensity (MFI) [38]: 1090 | Mean fluorescence intensity (MFI) [39]: 1790 | Mean fluorescence intensity (MFI) [40]: 1780 | Mean fluorescence intensity (MFI) [41]: 16600 | Mean fluorescence intensity (MFI) [42]: 17400 | Mean fluorescence intensity (MFI) [43]: 396 | Mean fluorescence intensity (MFI) [44]: 376 | Mean fluorescence intensity (MFI) [45]: 623 | Mean fluorescence intensity (MFI) [46]: 370 | Mean fluorescence intensity (MFI) [47]: 451
